Substitutions are numbered along the chain they refer to.
B1: Example 640 (peptide)
chain: YXQGTXTSDXSIXLDXKAQXEFIEXLIEGGPSSGAPPPSGS
modifications: non-natural residues; Lys acylated C18 diacid; C-terminal amide; synthetic construct; SITE 2: note = 2-Aminoisobutyric Acid; SITE 6: note = alpha-methyl-2-fluoro-L-phenylalanine; SITE 10: note = 3-(4-Pyridyl)-L-alanine; SITE 13: note = alpha-methyl-leucine; SITE 16: note = L-ornithine; SITE 17: note = Lysine is chemically modified through conjugation of the epsil
B2: Example 644 (peptide)
chain: B1 chain with A35E
modifications: non-natural residues; lipidated Lys AEEA-γGlu-C18 diacid; C-term amide; synthetic construct; SITE 2: note = 2-Aminoisobutyric Acid; SITE 6: note = alpha-methyl-2-fluoro-L-phenylalanine; SITE 10: note = 3-(4-Pyridyl)-L-alanine; SITE 13: note = alpha-methyl-leucine; SITE 16: note = L-ornithine; SITE 17: note = Lysine is chemically modified through conjugation of the epsil
B3: Example 643 (peptide)
chain: B1 chain with I27Q
modifications: non-natural residues, acylated Lys (AEEA-γGlu-C18 diacid), C-terminal amide; synthetic construct; SITE 2: note = 2-Aminoisobutyric Acid; SITE 6: note = alpha-methyl-2-fluoro-L-phenylalanine; SITE 10: note = 3-(4-Pyridyl)-L-alanine; SITE 13: note = alpha-methyl-leucine; SITE 16: note = L-ornithine; SITE 17: note = Lysine is chemically modified through conjugation of the epsil
B4: Example 646 (peptide)
chain: B1 chain with I27A
modifications: Aib, αMeF(2F), 4Pal, Orn, Me4Pal, αMeY; K (γGlu)2-C18 diacid; amide; synthetic construct; SITE 2: note = 2-Aminoisobutyric Acid; SITE 6: note = alpha-methyl-2-fluoro-L-phenylalanine; SITE 10: note = 3-(4-Pyridyl)-L-alanine; SITE 13: note = alpha-methyl-leucine; SITE 16: note = L-ornithine; SITE 17: note = Lysine is chemically modified through conjugation of the epsil
B5: Example 645 (peptide)
chain: B1 chain with I27L, A35E
modifications: non-natural residues; lipidated Lys; C-terminal amide; synthetic construct; SITE 2: note = 2-Aminoisobutyric Acid; SITE 6: note = alpha-methyl-2-fluoro-L-phenylalanine; SITE 10: note = 3-(4-Pyridyl)-L-alanine; SITE 13: note = alpha-methyl-leucine; SITE 16: note = L-ornithine; SITE 17: note = Lysine is chemically modified through conjugation of the epsil
B6: Example 641 (peptide)
chain: B1 chain with I27L
modifications: Lys acylated AEEA-γGlu-C18 diacid; non-natural residues; C-terminal amide; synthetic construct; SITE 2: note = 2-Aminoisobutyric Acid; SITE 6: note = alpha-methyl-2-fluoro-L-phenylalanine; SITE 10: note = 3-(4-Pyridyl)-L-alanine; SITE 13: note = alpha-methyl-leucine; SITE 16: note = L-ornithine; SITE 17: note = Lysine is chemically modified through conjugation of the epsil
B7: Example 642 (peptide)
chain: B1 chain with I27A
modifications: non-natural residues; acylated Lys; C-terminal amide; synthetic construct; SITE 2: note = 2-Aminoisobutyric Acid; SITE 6: note = alpha-methyl-2-fluoro-L-phenylalanine; SITE 10: note = 3-(4-Pyridyl)-L-alanine; SITE 13: note = alpha-methyl-leucine; SITE 16: note = L-ornithine; SITE 17: note = Lysine is chemically modified through conjugation of the epsil
B8: Example 626 (peptide)
chain: YXQGTXTSDXSIXLDKKAQXAFIEYLEEGGPSSGAPPPEGTGE
modifications: non-natural residues, (γGlu)2-diacid acylated Lys, C-terminal amide; synthetic construct; SITE 2: note = 2-Aminoisobutyric Acid; SITE 6: note = alpha-methyl-2-fluoro-L-phenylalanine; SITE 10: note = 3-(4-Pyridyl)-L-alanine; SITE 13: note = alpha-methyl-leucine; SITE 17: note = Lysine is chemically modified through conjugation of the epsilon-amino group of the Lysine
B9: Example 635 (peptide)
chain: B8 chain with A21X, A35E, E39S, T41S, G42E
modifications: non-natural residues; C18 diacid-(γ-Glu)2 acyl on Lys; C-terminal amide; synthetic construct; SITE 2: note = 2-Aminoisobutyric Acid; SITE 6: note = alpha-methyl-2-fluoro-L-phenylalanine; SITE 10: note = 3-(4-Pyridyl)-L-alanine; SITE 13: note = alpha-methyl-leucine; SITE 17: note = Lysine is chemically modified through conjugation of the epsilon-amino group of the Lysine
B10: Example 630 (peptide)
chain: B8 chain with A35E, E39S, T41S, G42E
modifications: non-natural residues; lipidated Lys; C-terminal amide; synthetic construct; SITE 2: note = 2-Aminoisobutyric Acid; SITE 6: note = alpha-methyl-2-fluoro-L-phenylalanine; SITE 10: note = 3-(4-Pyridyl)-L-alanine; SITE 13: note = alpha-methyl-leucine; SITE 17: note = Lysine is chemically modified through conjugation of the epsilon-amino group of the Lysine
B11: Example 634 (peptide)
chain: B8 chain with E27Q, A35E, E39S, T41S, G42E
modifications: (γGlu)2-C18 diacid on Lys; non-natural residues; amide; synthetic construct; SITE 2: note = 2-Aminoisobutyric Acid; SITE 6: note = alpha-methyl-2-fluoro-L-phenylalanine; SITE 10: note = 3-(4-Pyridyl)-L-alanine; SITE 13: note = alpha-methyl-leucine; SITE 17: note = Lysine is chemically modified through conjugation of the epsilon-amino group of the Lysine
B12: Example 632 (peptide)
chain: B8 chain with E27S, A35E, E39S, T41S, G42E
modifications: Aib, αMeF(2F), 4Pal, αMeL, acylated K, C-terminal amide; synthetic construct; SITE 2: note = 2-Aminoisobutyric Acid; SITE 6: note = alpha-methyl-2-fluoro-L-phenylalanine; SITE 10: note = 3-(4-Pyridyl)-L-alanine; SITE 13: note = alpha-methyl-leucine; SITE 17: note = Lysine is chemically modified through conjugation of the epsilon-amino group of the Lysine
B13: Example 628 (peptide)
chain: B8 chain with A35E
modifications: non-natural residues; lipidated Lys; C-terminal amide; synthetic construct; SITE 2: note = 2-Aminoisobutyric Acid; SITE 6: note = alpha-methyl-2-fluoro-L-phenylalanine; SITE 10: note = 3-(4-Pyridyl)-L-alanine; SITE 13: note = alpha-methyl-leucine; SITE 17: note = Lysine is chemically modified through conjugation of the epsilon-amino group of the Lysine
B14: Example 631 (peptide)
chain: B8 chain with E27A, A35E, E39S, T41S, G42E
modifications: non-natural residues; acylated Lys; C-terminal amide; synthetic construct; SITE 2: note = 2-Aminoisobutyric Acid; SITE 6: note = alpha-methyl-2-fluoro-L-phenylalanine; SITE 10: note = 3-(4-Pyridyl)-L-alanine; SITE 13: note = alpha-methyl-leucine; SITE 17: note = Lysine is chemically modified through conjugation of the epsilon-amino group of the Lysine
B15: Example 633 (peptide)
chain: B8 chain with E27T, A35E, E39S, T41S, G42E
modifications: non-natural residues, C18 diacid acylation, C-terminal amide; synthetic construct; SITE 2: note = 2-Aminoisobutyric Acid; SITE 6: note = alpha-methyl-2-fluoro-L-phenylalanine; SITE 10: note = 3-(4-Pyridyl)-L-alanine; SITE 13: note = alpha-methyl-leucine; SITE 17: note = Lysine is chemically modified through conjugation of the epsilon-amino group of the Lysine
B16: Example 59 (peptide)
chain: YXQGTFTSDFSXXLDKKAQXAFIEYLLEGGPSSGEPPPSEG
modifications: synthetic construct; SITE 2: note = 2-Aminoisobutyric Acid; SITE 12: note = L-ornithine; SITE 13: note = alpha-methyl-leucine; SITE 17: note = Lysine is chemically modified through conjugation of the epsilon-amino group of the Lysine side chain with (2-[2-(2-Amino-ethoxy)-ethoxy]-acetyl)-(gamma-Glu)
B17: Example 60 (peptide)
chain: B16 chain with E28A, E35A
modifications: synthetic construct; SITE 2: note = 2-Aminoisobutyric Acid; SITE 12: note = L-ornithine; SITE 13: note = alpha-methyl-leucine; SITE 17: note = Lysine is chemically modified through conjugation of the epsilon-amino group of the Lysine side chain with (2-[2-(2-Amino-ethoxy)-ethoxy]-acetyl)-(gamma-Glu)
B18: Example 636 (peptide)
chain: YXQGTXTSDXSIXLDKKAQXXFIEYLAEGGPSSGEPPPSGSEE
modifications: non-natural residues; C18 diacid-(γ-Glu)2 acyl on Lys; C-terminal amide; synthetic construct; SITE 2: note = 2-Aminoisobutyric Acid; SITE 6: note = alpha-methyl-2-fluoro-L-phenylalanine; SITE 10: note = 3-(4-Pyridyl)-L-alanine; SITE 13: note = alpha-methyl-leucine; SITE 17: note = Lysine is chemically modified through conjugation of the epsilon-amino group of the Lysine
B19: Example 638 (peptide)
chain: B18 chain with A27T
modifications: Aib, αMeF(2F), 4Pal, αMeL, Orn; γGlu2-C18 diacid Lys; amide; synthetic construct; SITE 2: note = 2-Aminoisobutyric Acid; SITE 6: note = alpha-methyl-2-fluoro-L-phenylalanine; SITE 10: note = 3-(4-Pyridyl)-L-alanine; SITE 13: note = alpha-methyl-leucine; SITE 17: note = Lysine is chemically modified through conjugation of the epsilon-amino group of the Lysine
B20: Example 639 (peptide)
chain: B18 chain with A27Q
modifications: non-natural residues; K acylated (γGlu)2-C18 diacid; C-amide; synthetic construct; SITE 2: note = 2-Aminoisobutyric Acid; SITE 6: note = alpha-methyl-2-fluoro-L-phenylalanine; SITE 10: note = 3-(4-Pyridyl)-L-alanine; SITE 13: note = alpha-methyl-leucine; SITE 17: note = Lysine is chemically modified through conjugation of the epsilon-amino group of the Lysine
B21: Example 637 (peptide)
chain: B18 chain with A27S
modifications: Aib, αMeF(2F), 4Pal, Orn; acylated lysine; amide; synthetic construct; SITE 2: note = 2-Aminoisobutyric Acid; SITE 6: note = alpha-methyl-2-fluoro-L-phenylalanine; SITE 10: note = 3-(4-Pyridyl)-L-alanine; SITE 13: note = alpha-methyl-leucine; SITE 17: note = Lysine is chemically modified through conjugation of the epsilon-amino group of the Lysine

What follows are binders tested against hGLP-1R (Homo sapiens, UniProt P43220) (assay: cell-based or functional assay).
Chain of hGLP-1R (P43220 24-463): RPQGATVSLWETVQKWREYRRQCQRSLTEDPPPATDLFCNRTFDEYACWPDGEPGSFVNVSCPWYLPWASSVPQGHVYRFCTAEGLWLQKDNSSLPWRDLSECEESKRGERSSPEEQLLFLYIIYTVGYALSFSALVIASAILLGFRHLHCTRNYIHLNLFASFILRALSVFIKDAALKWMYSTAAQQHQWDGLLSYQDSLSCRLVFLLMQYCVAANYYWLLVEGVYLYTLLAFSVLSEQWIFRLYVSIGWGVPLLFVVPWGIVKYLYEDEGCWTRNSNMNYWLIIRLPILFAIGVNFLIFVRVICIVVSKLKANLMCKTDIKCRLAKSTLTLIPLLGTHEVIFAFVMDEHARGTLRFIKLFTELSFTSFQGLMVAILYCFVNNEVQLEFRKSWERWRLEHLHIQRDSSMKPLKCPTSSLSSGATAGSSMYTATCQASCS

| Binder | Relative cAMP EC50 [nM] | cAMP Rel EC50 (in the presence of 1% HSA) [nM] | cAMP Rel EC50, nM (in the presence of 1% HSA) [nM] |
| --- | --- | --- | --- |
| B1 | 0.288 | 27.8 |  |
| B2 | 0.309 | 34.3 |  |
| B3 | 0.741 | 60.1 |  |
| B4 | 2.58 | 90.5 |  |
| B5 | 0.596 | 76.3 |  |
| B6 | 0.489 | 68.3 |  |
| B7 | 0.474 | 67.1 |  |
| B8 | 0.889 | 60.8 |  |
| B9 | 0.625 | 53.9 |  |
| B10 | 0.762 | 74.5 |  |
| B11 | 0.403 | 34.9 |  |
| B12 | 0.951 | 88.2 |  |
| B13 | 1.11 | 79.8 |  |
| B14 | 0.658 | 55 |  |
| B15 | 0.421 | 41.2 |  |
| B16 | 4.8 |  | 1370 |
| B17 | 1.93 |  | 409 |
| B18 | 0.504 | 36.6 |  |
| B19 | 0.4 | 36 |  |
| B20 | 0.374 | 27.9 |  |
| B21 | 1.08 | 76.2 |  |

The binders below were run against T1, human GIP receptor (human) (UniProt P48546) (assay: cell-based or functional assay).
T1 sequence (looked up): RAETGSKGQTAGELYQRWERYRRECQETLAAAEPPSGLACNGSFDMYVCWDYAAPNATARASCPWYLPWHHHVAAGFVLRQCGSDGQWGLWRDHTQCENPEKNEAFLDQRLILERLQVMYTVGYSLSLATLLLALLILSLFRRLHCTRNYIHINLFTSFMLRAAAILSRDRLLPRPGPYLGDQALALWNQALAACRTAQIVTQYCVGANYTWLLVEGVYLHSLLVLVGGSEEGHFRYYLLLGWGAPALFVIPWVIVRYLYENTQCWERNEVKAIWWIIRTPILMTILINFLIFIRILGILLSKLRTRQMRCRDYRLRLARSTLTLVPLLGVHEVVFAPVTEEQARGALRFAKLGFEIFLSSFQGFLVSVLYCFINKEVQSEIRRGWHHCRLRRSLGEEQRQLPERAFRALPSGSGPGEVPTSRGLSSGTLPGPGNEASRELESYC

| Binder | Relative cAMP EC50 [nM] | cAMP Rel EC50 (in the presence of 1% HSA) [nM] | cAMP Rel EC50, nM (in the presence of 1% HSA) [nM] |
| --- | --- | --- | --- |
| B1 | 0.00696 | 0.591 |  |
| B2 | 0.00649 | 0.601 |  |
| B3 | 0.0223 | 1.61 |  |
| B4 | 0.0336 | 1.09 |  |
| B5 | 0.00724 | 0.863 |  |
| B6 | 0.00819 | 0.832 |  |
| B7 | 0.00796 | 0.791 |  |
| B8 | 0.0192 | 1.75 |  |
| B9 | 0.0405 | 2.7 |  |
| B10 | 0.0233 | 2.96 |  |
| B11 | 0.0195 | 1.48 |  |
| B12 | 0.068 | 5.48 |  |
| B13 | 0.0278 | 1.87 |  |
| B14 | 0.0375 | 3.92 |  |
| B15 | 0.0186 | 1.63 |  |
| B16 | 0.54 |  | 166 |
| B17 | 0.135 |  | 33 |
| B18 | 0.054 | 4.3 |  |
| B19 | 0.0354 | 2.39 |  |
| B20 | 0.0231 | 2.04 |  |
| B21 | 0.108 | 7.23 |  |

What follows are binders tested against human glucagon receptor (human) (UniProt P47871) (assay: cell-based or functional assay).
Chain of human glucagon receptor (human) (P47871 26-477): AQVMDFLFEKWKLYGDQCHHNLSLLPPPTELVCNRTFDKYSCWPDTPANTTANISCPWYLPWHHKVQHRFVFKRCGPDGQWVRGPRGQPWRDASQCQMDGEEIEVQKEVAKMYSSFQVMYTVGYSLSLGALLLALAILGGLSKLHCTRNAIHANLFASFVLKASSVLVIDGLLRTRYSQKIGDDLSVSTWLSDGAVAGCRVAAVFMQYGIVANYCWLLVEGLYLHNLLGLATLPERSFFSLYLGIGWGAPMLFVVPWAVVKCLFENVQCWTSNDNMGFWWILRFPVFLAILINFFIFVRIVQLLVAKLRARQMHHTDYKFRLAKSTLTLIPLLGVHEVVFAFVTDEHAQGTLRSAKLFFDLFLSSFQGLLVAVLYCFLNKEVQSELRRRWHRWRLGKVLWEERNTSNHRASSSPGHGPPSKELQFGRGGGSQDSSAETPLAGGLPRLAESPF

| Binder | Relative cAMP EC50 [nM] | cAMP Rel EC50 (in the presence of 1% HSA) [nM] | cAMP Rel EC50, nM (in the presence of 1% HSA) [nM] |
| --- | --- | --- | --- |
| B1 | 9.5 | 730 |  |
| B2 | 5.91 | 626 |  |
| B3 | 16 | 1170 |  |
| B4 | 23.1 | 1260 |  |
| B5 | 3.25 | 398 |  |
| B6 | 3.72 | 451 |  |
| B7 | 3.49 | 519 |  |
| B8 | 8.72 | 546 |  |
| B9 | 7.09 | 753 |  |
| B10 | 8.07 | 872 |  |
| B11 | 6.49 | 979 |  |
| B12 | 13.5 | 1600 |  |
| B13 | 7.47 | 651 |  |
| B14 | 16.8 | 1250 |  |
| B15 | 10.2 | 1500 |  |
| B16 | 6.57 |  | 2160 |
| B17 | 8.96 |  | 1210 |
| B18 | 9.28 | 935 |  |
| B19 | 14 | 1090 |  |
| B20 | 8 | 750 |  |
| B21 | 11.7 | 968 |  |
